Data reported in patent publication US9701750B2.

Legend:
[1] = biological target: human CD16A-Fc^48R/158F fusion protein (human); assay: SPR (BIAcore 2000), antigen immobilized, koff/kon
CD16B-Fc^NA1 (human) [2] = assay: SPR (BIAcore 2000), antigen immobilized, koff/kon
CD16B-Fc^SH (human) [3] = assay: SPR (BIAcore 2000), antigen immobilized, koff/kon
[4] = biological target: human CD16A-Fc^48R/158V fusion protein (human); assay: SPR (BIAcore 2000), antigen immobilized, koff/kon
CD16B-Fc^NA2 (human) [5] = assay: SPR (BIAcore 2000), antigen immobilized, koff/kon
[6] = biological target: human CD16A-Fc^48R/158V fusion protein (human); assay: SPR (BIAcore 2000), CD16A-Fc immobilized, 1/1 Langmuir model
[7] = biological target: human CD16A (FcγRIIIA) on the cell surface (human) (UniProt P08637)
[8] = biological target: human CD16A-Fc^48R/158V fusion protein (human); assay: SPR (BIAcore 2000), CD16A-Fc immobilized, koff/kon
[9] = biological target: human CD16A-Fc^48R/158F fusion protein (human); assay: SPR (BIAcore 2000), antigen immobilized
CD16B-Fc^NA1 (human) [10] = assay: SPR (BIAcore 2000), antigen immobilized
CD16B-Fc^SH (human) [11] = assay: SPR (BIAcore 2000), antigen immobilized
[12] = biological target: human CD16A-Fc^48R/158V fusion protein (human); assay: SPR (BIAcore 2000), antigen immobilized
CD16B-Fc^NA2 (human) [13] = assay: SPR (BIAcore 2000), antigen immobilized

Kd [1]: 3.82 nM
Kd (CD16B-Fc^NA1 (human) [2]): 8.91 nM
Kd (CD16B-Fc^SH (human) [3]): 11.4 nM
Kd [4]: 5.17 nM
Kd (CD16B-Fc^NA2 (human) [5]): 9.63 nM
koff [6]: 0.000177 s⁻¹
kon [6]: 101000 M⁻¹ s⁻¹
redirected lysis of FcR-positive P815 cells by freshly isolated NK cells (calcein release) [7]: 65%
Kd [8]: 1.75 nM
koff [9]: 0.00038 s⁻¹
kon [9]: 99400 M⁻¹ s⁻¹
koff (CD16B-Fc^NA1 (human) [10]): 0.000487 s⁻¹
kon (CD16B-Fc^NA1 (human) [10]): 77200 M⁻¹ s⁻¹
koff (CD16B-Fc^SH (human) [11]): 0.000528 s⁻¹
kon (CD16B-Fc^SH (human) [11]): 77900 M⁻¹ s⁻¹
koff [12]: 0.000406 s⁻¹
kon [12]: 78600 M⁻¹ s⁻¹
koff (CD16B-Fc^NA2 (human) [13]): 0.000478 s⁻¹
kon (CD16B-Fc^NA2 (human) [13]): 75700 M⁻¹ s⁻¹
Substance: anti-CD16 murine monoclonal antibody A9
